Test results as given in PMC3510486, “The structural basis for the interaction between the CAF1 nuclease and the NOT1 scaffold of the human CCR4–NOT deadenylase complex” (Nucleic Acids Research, 2012).

Target: T1, Hs CAF1, purified for crystallization (human, UniProt Q9UIV1-1 1-285)
T1 construct: human CAF1 (CNOT7); model holds residues Q10-S266 and G274-E280 (chain B); residues up to E280 are seen in the map, so it is probably the whole protein; also called CNOT7; source: E. coli Rosetta2, purified (GSTrap, PreScission cleavage, gel filtration)
Test: crystal structure; complex of purified NOT1 MIF4G and CAF1 (1.2:1) isolated by gel filtration; hanging drop, 4°C, 0.1 M Tris-HCl pH 8.2, 16% PEG 8000, 0.2 M MgCl2, 0.2 M ammonium sulfate; 2.70 Å
Settings: both partners purified

T1 sequence (Q9UIV1 whole entry, the tested form may be a part): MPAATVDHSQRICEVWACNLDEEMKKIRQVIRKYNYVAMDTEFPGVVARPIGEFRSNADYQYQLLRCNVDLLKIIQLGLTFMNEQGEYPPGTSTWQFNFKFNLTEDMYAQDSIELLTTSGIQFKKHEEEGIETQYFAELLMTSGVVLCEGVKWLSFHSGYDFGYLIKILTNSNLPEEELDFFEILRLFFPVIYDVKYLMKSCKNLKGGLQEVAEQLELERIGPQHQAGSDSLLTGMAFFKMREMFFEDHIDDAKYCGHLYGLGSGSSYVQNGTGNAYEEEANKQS

- binding result: binds
B1: MIF4G domain of Hs NOT1 (residues 1093-1317), purified for crystallization (domain or fragment, human, UniProt A5YKK6-1 1093-1317, looked up)
chain: ENIQEKIAFIFNNLSQSNMTQKVEELKETVKEEFMPWVSQYLVMKRVSIEPNFHSLYSNFLDTLKNPEFNKMVLNETYRNIKVLLTSDKAAANFSDRSLLKNLGHWLGMITLAKNKPILHTDLDVKSLLLEAYVKGQQELLYVVPFVAKVLESSIRSVVFRPPNPWTMAIMNVLAELHQEHDLKLNLKFEIEVLCKNLALDINELKPGNLLKDKDRLKNLDEQLS
notes: His6 fusion is PreScission-cleavable; also called NOT1 MIF4G domain; source: E. coli BL21 Codon Plus RIL, purified (Ni Sepharose IMAC, gel filtration)
